Test results taken from patent publication US20210047373A1, “BETA BARREL POLYPEPTIDES AND METHODS FOR THEIR USE” (UNIVERSITY OF WASHINGTON, priority 2018, published 2021).

B1: mFAP2b: SEQ ID NO:69; mFAP2.5 with V67I (protein)
chain: MSRAAQLLPGTWQVTMTNEDGQTSQGQWHFQPRSPYTMDIVAQGTISDGRPIVGYGKATVKTPDTLDIDITYPSLGNIKAQGQITMDSPTQFKWDATTKGENDFHGRLTGTLQRQE
modifications: (1)..(1) optionally absent
B2: mFAP2a: SEQ ID NO:66 (protein)
chain: MSRAAQLLPGTWQATFTNEDGQTSQGQWHFQPRSPYTMDIVAQGTISDGRPIVGYGKATVKTPDTLDIDITYPSLGNIKAQGQITMDSPTQFKWDATTKGENDFHGRLTGTLQRQE
modifications: (1)..(1) optionally absent

How the values were obtained:
[1] = Fluorescence brightness with DFHBI-1T; format: biochemical; conditions: normalized 0 to 1 across all three chromophores; average ± SD of two protein concentrations
Protocol: (§1) Table 3A-C. Brightness and chromophore affinities of selected mFAP variants. Fluorescence brightness measurements at 10 μM (top table) and 100 nM (middle table) chromophore concentrations were normalized from 0 to 1 across all three chromophores (DFHBI, DFHBI-1T, and DFHO), and the normalized values for two protein concentrations tested for each chromophore at each chromophore concentration were averaged and standard deviations of the average computed. Reported values are the normalized averages and standard deviations of the means for each chromophore concentration and each chromophore. Reported relative densitometry values are the relative densitometry values normalized from 0 to 1 and represent how well each design expresses relative to one another in Lemo21(DE3) E. coli cultures. Thermodynamic dissociation constants (bottom table) are obtained by non-linear least squares fitting of chromophore titrations (n=1) to a single binding site isotherm, and values reported with the standard deviation of the fit. Where the obtained Kd values are below the protein concentration tested, the Kd and standard deviation of the fit are reported in parentheses. Values with “N/D” were not determined.

[2] = Chromophore titration, fit to single binding site isotherm: DFHBI-1T; conditions: n=1 titration; ± SD of the fit; Table 3C
Protocol: as §1

E. coli cells = assay: Confocal imaging of E. coli expressing mFAP2a or mFAP2b labeled with chromophore; format: cell-based; conditions: for Chromophore selectivity, DFHBI versus DFHBI-1T: E. coli imaging
Source text: FIG. 20: Characterization of brighter and chromophore-specific mFAP variants (mFAP2a and mFAP2b). (a) Design model of de novo β-barrel variant mFAP2b protein backbone (cartoon) bound to small molecule chromophore DFHBI (sticks). (b, c) Chemical structures of the chromophores DFHBI and DFHBI-1T, respectively. (d, e) In vitro titration of (d) DFHBI or (e) DFHBI-1T with purified mFAP2, mFAP2b, and mFAP2a proteins. mFAP2a/DFHBI, mFAP2a/DFHBI-1T, and mFAP2b/DFHBI complexes are brighter than the mFAP2/DFHBI complex. mFAP2a has higher affinity toward DFHBI compared to mFAP2b. mFAP2a binds DFHBI-1T with higher affinity than mFAP2 and the complex has brighter fluorescence than the DFHBI systems. Error bars represent standard deviation of the mean of 8 technical replicates. Shown are the non-linear least squares fits to a single binding-site isotherm equation (lines). […] (f-i) The images on the left of each panel were acquired using a laser scanning confocal fluorescence microscope and show pseudo-colored normalized fluorescence intensity values per pixel. Scale bars represent 10 microns. In the design models shown on the right of each panel the residues unique to mFAP2b (V13, M15) and residues unique to mFAP2a (A13, F15) are shown as sticks. Intermolecular hydrogen bonds to the chromophore are shown as black dotted lines. […]
It was hypothesized that a commercially-available variant of the DFHBI chromophore with a trifluoromethyl group, DFHBI-1T (FIG. 20 c), could pack into the void without causing steric clashes with nearby amino acid side-chains and could therefore fit into the mFAP2a binding pocket, while […] would result in steric clashes in the mFAP2b pocket. Studying the fluorescence of mFAP2a and mFAP2b in the presence of DFHBI-1T experimentally validated this hypothesis. […] Based on the absolute and relative quantum yields measured for these four complexes, the brightest protein-chromophore combination is mFAP2a with DFHBI-1T, with an absolute quantum yield of 12.9% (˜3.5-fold dimmer than EGFP).

[3] = DFHBI titration of Ca2+-responsive mFAP variants in excess or absence of Ca2+; format: binding; conditions: DFHBI titration in absence and presence of Ca^2+, n=1
Source text: FIG. 23. In vitro fluorescence characterization of Ca^2+-responsive mFAP variants. […] Normalized fluorescence values (n=1) are fit to a sigmoid equation using non-linear least squares fitting (lines). […] Error bars represent the standard deviation of the mean of 3 technical replicates. The means are fit to a sigmoid equation (for positive allostery) or inverse sigmoid equation (for negative allostery) with Hill coefficients of 1 using non-linear least squares fitting (lines) to extract reported Kd values in Table 5.
DFHBI Kd^+(in excess Ca^2+), DFHBI Kd^−(in absence of Ca^2+), and Ca^2+Kd (in excess DFHBI) are computed by fitting the normalized fluorescence readouts from titrations to a single binding site isotherm equation with Hill coefficient of 1 using non-linear least squares fitting. Standard deviations of the fit are reported. Hill coefficients are reported for fitting the titration data to a single binding site isotherm with variable Hill coefficient using non-linear least squares fitting, and the standard deviation of the fit are reported. For positive allosteric modulators, Kd^−/Kd^+ is reported, and for negative allosteric modulators, Kd^+/Kd^− is reported. […]

[4] = Chromophore titration, fit to single binding site isotherm: DFHBI; conditions: for Kd: n=1 titration, ± SD of the fit, Table 3C, read-out: DFHBI Kd
Protocol: (§2) Fluorescence binding assay. Protein-activated DFHBI fluorescence signals were measured in 96-well plate format (Corning 3650) on a Synergy neo2 plate reader (BioTek, Inc) with λex=450 nm or 460 nm and λem=500 nm or 510 nm. Binding reactions were performed at […] in PBS pH7.4 buffer. Protein concentrations were determined by 280 nm absorbance as described above. DFHBI (Lucerna, Inc) were resuspended in DMSO as instructed to make 100 mM stock and diluted in PBS to 0.5-10 μM. Approximate emission spectra were recorded for active designs from 490 to 600 nm.
as §1

[5] = Fluorescence activation / brightness with DFHBI; format: biochemical; conditions: for Fluorescence brightness, 100 nM DFHBI / Fluorescence brightness, 10 μM DFHBI: normalized 0 to 1 across all three chromophores, average ± SD of two protein concentrations
Protocol: as §2, §1

[6] = Fluorescence brightness with DFHO; format: biochemical; conditions: normalized 0 to 1 across all three chromophores; average ± SD of two protein concentrations
Protocol: as §1

[7] = Chromophore titration, fit to single binding site isotherm: DFHO; conditions: n=1 titration; ± SD of the fit; Table 3C
Protocol: as §1

fixed COS-7 cells = assay: Photostability under continuous wave imaging; format: cell-based; conditions: endoplasmic reticulum, 50 μM DFHBI, frame 1 to frame 200
Protocol: FIG. 21: Super-resolution microscopy and photostability of mFAP2a and mFAP2b. (a-g) To show the application of the mFAP system in super-resolution microscopy, mFAP2a and mFAP2b were fused to a designed protein polymerizing into a filament (DHF119). (a) The maximum diameter of the DHF119 fiber fused to the 6×His-tagged mFAP2b was estimated to be ˜22 nm based on the computational design models. (b-d) The DHF119-GS-mFAP2a-6×His fiber was labeled at 5.78 μM DFHBI-1T and (e-f) the DHF119-GS-mFAP2b-6×His was labeled at 1.83 μM DFHBI. Both systems were imaged with (b,e) fluorescence widefield microscopy and (c,f) fluorescence localization microscopy. Scale bars are 1 micron. (d,g) Normalized average intensity profiles between the yellow arrowheads shown in the widefield image (black line) or localization reconstruction (grey line) estimate the diameter of the fluorescent filament. The mean and standard deviation of the mean of the full width half maximum (FWHM) values of the three intensity profiles are annotated, 11-k) Photostability of mFAP2a and mFAP2b complexes with DFHBI and DFHBI-1T compared to AcGFP1. […] Normalized fluorescence intensity images are shown for four regions of interest (ROIs). (h, i) Frames 1 (left) to 200 (right) were acquired under continuous wave imaging at 0.885 Hz (1.13 s/frame). Scale bars are 10 microns. […]

[8] = Photophysical characterization (absorbance, excitation, emission, extinction coefficient, quantum yield); format: physicochemical

Molecule	Fluorescence brightness, 100 nM DFHBI-1T [1]	Fluorescence brightness, 10 μM DFHBI-1T [1]	Kd [2] [µM]	Chromophore selectivity, DFHBI versus DFHBI-1T (E. coli cells)	Kd [4] [µM]	Fluorescence brightness, 100 nM DFHBI [5]	Fluorescence brightness, 10 μM DFHBI [5]	Fluorescence brightness, 100 nM DFHO [6]	Fluorescence brightness, 10 μM DFHO [6]	Kd [7] [µM]	further results
B1	0.01 ± 0.0	0.01 ± 0.0	42.2 ± 6.03	pronounced chromophore selectivity	1.67 ± 0.08	0.82 ± 0.02	1.0 ± 0.0	0.01 ± 0.0	0.01 ± 0.0	9.01 ± 1.91	Fluorescent signal in E. coli with DFHBI-1T (E. coli cells; 10 μM chromophore): does not give a fluorescent signal; Allostery between Ca^2+ and DFHBI binding [3]: no allostery; Weaker affinity for the chromophore than mFAP2 ([4]; DFHBI): ~14.1 fold; DFHBI complex brighter than DFHBI-1T complex ([5]; FIG. 20 d,e): ~70 fold; Brighter than mFAP2.4 ([5]; neutral pH): ~1.3 fold; Brighter than mFAP2.5 ([5]; neutral pH): ~1.2 fold; Brighter fluorescence than mFAP1 ([5]; protein at 10-fold higher concentration than DFHBI, peak emission 511 nanometers): approximately 4.5
B2	0.59 ± 0.06	0.92 ± 0.05	3.7 ± 0.56	pronounced chromophore promiscuity	0.0546 ± 0.01	1.0 ± 0.0	0.77 ± 0.12	0.03 ± 0.01	0.04 ± 0.0	8.47 ± 1.99	Photostability compared to AcGFP1 (fixed COS-7 cells): higher fluorescent signal is retained; Absolute quantum yield with DFHBI-1T [8]: 12.9%; Brightness, times dimmer than EGFP ([8]; with DFHBI-1T): ~3.5 fold; Brighter fluorescence than mFAP2b ([5]; low DFHBI concentration (554.88 nM), neutral pH): ~1.3 fold
